What all share (experiment): Tox-Luc (ToxR-TM-MBP) TM domain dimerisation assay in E. coli, luciferase read-out
Assay [1] deals with YT/LL mutated human CD28 TM domain in the ToxLuc construct (ToxR-TM-MBP). As to conditions: parent: est. 23000; read off a plot.
Assay [2] concerns the target Y145L/T150L (YT/LL) mutated mouse CD28 TM domain in the ToxLuc construct (ToxR-TM-MBP). As to conditions: read off a plot.
For assay [3], the target named is mutant GpA (G83I) TM domain in the ToxLuc construct (ToxR-TM-MBP). As to conditions: parent: est. 5500; read off a plot.

In the case of “WT human CD28 TM domain in the ToxLuc construct (ToxR-TM-MBP) YT/LL”, the response (Relative Light units) in assay [1] was found to be 2900.

With “WT mouse CD28 TM domain in the ToxLuc construct (ToxR-TM-MBP) Y145L; T150L”, the response (Relative Light units) in assay [2] (parent: est. 2500) stood at 270; in assay [2] (parent: est. 19000), 3100. As for “wild type (WT) GpA TM domain in the ToxLuc construct (ToxR-TM-MBP) G83I”, the response (Relative Light units) in assay [3] stood at 700.
